assay: purified protein yield per well (BCA); higher = higher soluble expression
Summary of the method: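 Each candidate enzyme was grown in E. coli C41(DE3) in a 2 mL autoinduction culture (100 µg/mL kanamycin; 2 h at 37 °C, then 40 h at 18 °C) and purified robotically via Ni-charged magnetic beads with SUMO protease cleavage. Purified protein yield per well was assessed using the Pierce Rapid Gold BCA kit. Readings below 25 ug (0.1 mg/mL) are beneath the detection threshold.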

Sequence	purified protein yield per well [µg]
AGNPYQRGPDPTVASVAATSGPFATAQLSVPPGNGFNGGMIYYPTDTSLGTWGAVAIVPGYTALFANEEAWMGPWLASFGFVVIGVETNSRTDYDVARGTELLAALDYLTQQSPVRDRVDATRLGVIGHSMGGGGVVYATEHRPSLKSAVALAPFSPSQTMATDTVPTMVMGGQNDTVVTPSYLSGLYATMPATTQSDFLQIAGADHVYYTHPNSVEMRILIPWIKTFIDNDTRYTQFLCPALADPTGVSIYQSKCPYVPGGSTPPPPTGGPVHAVGAGKCLDVPNSSTTGGTQLQIYTCDGQSNQTFTHTSTGALSVTDNGTTMCLDANGKGTTSGTKVIIWSCNGQTNQQWNVNSNGTITGVQSGLCLDVSGASTANGALVQLWTCNGQSNQQWKLG [TEP015]	< 25
MGFGGGTIYYPTTSGQYGAIAVCPGFTGTSSSISWFARRLATHGFVTIAMNTTTTLDYPSSRATQLAAALRYLLNSSSSTIRSRIRTADRGVAGHSMGGGGTLIASANDSTLRAGIPMTPWNTYTSFSSVRVPQMIFGADGDTIAPYATHARPFYNSISLAEKAYALLNGAGHFTPNSTDQRIRRYGVAFAKRFVDGDTRYNPFLCGAEHTAYATSSRFQTYLSNCPY [ESM185]	< 25
RPAPATTAASQSTQRGPDPTVAMIEATRGPFATAQVSVPAGHGFGGGMIYYPTDTSQGTWGALAIVPGYSALFANEEAWMGPWLSSFGFVVIGVETNTRTDSDSQRAAEVLAALDYLTTQSPVRNEVDPARLSVLGHSAGGAGVIEAAEQRPSLRALIGLAPGYPGQGLSMATDQVPALVVGGQADTTVTPSYLANLYGTLPASTQSDFAQIAGADHVYYTHPNNVEMKLIIPWLKLFVDSDSRYEQFLCPSLPDPSTISAYQPKCPYTPPGGSSSSSSSSSSSSASSSSPTTPTTTTSSTPSTSCTATYQTQNSWPGGFQGLVTVTAGPAAISSWTVKWNLSSGQSITQVWSGTLSTSGSAVSVGNASYNGSLAPGASATFGFLADGSPSTPTLSCTGS [ESM120]	< 25
VQIGPAPTSAALNKDGTFSVSSTSVSSLSARGFGGGTIYYPTTAGQYGVIAVCPGYTGTSSSISWFARRLATHGFVTIAMNTTTTLDQPDSRATQLAAALKCVLSNSTVKSRIRSTDRGVAGHSMGGGGTLIASQSDSSLRVGIPMTPWNLSTNFSAVKVPQMIFGADGDTIAPYASHARPFYNSINKTQKAYGLLKSATHFTPNSTDQRIGRYGVAFAKRFVDGDTRYSAFLCGAEHSSYATSSKFATYLSNCPY [ESM154]	< 25
ITPPPDDDGNNGGGDTCQQDCGFERGPNPTVASLESRSGPFSVRTSSVSSRVSGFGGGTIHYPTGQTGTMGAIVVIPGFVSAESSIAWWGTQLAAHGFVVMTIDTNSGTDQPPSRARQINAALDYLVSQNTASGSPVRGMIDPSRLGVAGWSMGGGGTLRVATEGRIKAAMPLAPWDTGSTQFRSVKAQTLIFACESDAIAPVNSHASPFYNALPNNINKAFVEISRGSHYCANGGNSNNSLLSRLGVSWMKLHLDQDQRYNQFICGPRHESDRSISEYRGNCSN [ESM115]	< 25
EPYASIVIVPGYGMIEASIQDWGPFFASWGIIAMTIGTNNPYDFPEERVEALLDAIETIKQENDRINSPIYEKVDLNSFAVSGWSMGGGGAQLAAVIEPTLKAVIALCPWLDNWVLEPDDLNHSVPTLIFSGQYDVNAPPYLHANIHYNYTPSTTDKLLFEVEYGDHYVANGPDGGSGYVGDRAHEWINNYLLGD [TEP055]	< 25
MRDGPKFGTATVYYPENAQAPYASLLIVTGFVHPESAMKAWGPFLASHGIVTLTIGTNKLKDDPFKRRDALLDAVRSLKAEHLRKDSPLWHKLALDRIGVAGWSMGGGGAQLAAAADPSLRAVIGFCPWLPKANFEHPVPSLIIAGTLDSIANVFLNARAHYAGISETTPKLIIEIPYGGHWIANDPANANGAIGQIGLSWLKVYLEGDTRYRQFLLTPPISGGYFRHNLE [TEP077]	< 25
QSAGGNPYAIGPDPTASSLEASSGPFGYTSTTIPSSEATGYGGGTVYYPANVNIATGGIVVVPGYGATQSNISWWGPRLASNGFVVYTIDTTNIYDLPAQRAKEIMAAVAQLKTFSTTTGNEIYGKVDTNRIGIMGGSFGGGGTLIAETTHPQLKAAIPFVPKIASGNPDLSKITIPTLIIGCQEDQVAPPKSYAIPYYSAIPEQNHKAYLEISNGQHLCASTQGSDQNKPIIGKYGVAWMKRFIDNDSRYNPYLCGSPHQTDVSNSTVISGYKDTCPY [DP020]	< 25
VENGPAPTFSSVQAEGPFAVSTQTVRGSGFGGGTVYSPNTAGKYAVVAVCPGFTATQSSIALISRRLATHGFVVVTISTNSVYDYPASRANQLLAALRTVTALTTGPVAGKMDISRQGVAGWSMGGGGAMLAAGMTPGLKAGVAFAPWSLTNNVGSSSVPMAYLAGTADTVAPASSHSTVFYNAMPATTNKLIGVIQGANHYFPGTASQPASYTQVAWMKRFLDGDTRYSQFLNGDSRFATFRSTGPF [ESM102]	< 25
ADNPYERGPDPTEASIEAPRGPYAVAEKSVSALEATGFGGGTIHYPTSTAEGTFGAVAIAPGYTALQSSVAWLGPRLASQGFVVITIDTHTTVDQPASRGDQLLAALDHLTRRDSVRSRVDSGRLGVMGHSMGGGGSLEAAKDRPSLQAAIPLTGWNLDKTWSEVRVPTMLIGADGDTIAPVATHSQPFYESLPSTLDRAYLELNDAGHFTPNAPDTTIAKYSVSWLKRFIDNDTRYEQFLCPLPRPSRTIDEYRGNCPHTS [TEP143]	< 25
QAIGPDPTAASLAADGPFAVSTQTASRATGFAGGTIYVPNTAGRYALVAFCPGFTNSQSAVAALGRRLATHGFVVVTMNTNSIFDFPASRATQLIAALNTVAAISTGPVVGKVDSARRMVAGYSMGGGGALIAARGNPSLRGAVALAPWSDSDKNFSTTTVPTAIVAGSADTTASPTDHATVFYNSMPTTTKKLLAIISGATHSFPTTSTPNQPASGYQIAWSKRFADQDVRYGPFLVTDSRLSSFASTGPF [ESM142]	< 25
VQSESPGKKYTSGPYGYTTTSLTGYSAGATIYIPRTGTPPYSGIVFMQPYTGTQAMDAAWGPFFASHGIIYVNCDSMTTLDTVDSRATQQMNAVSILKSSSKVKGKLDTSRVGVMGWSMGGGASWINSSKSGVKTAMTLAGHNLTAVSTASKGYSTRCPTAIFSGSLDTTYLGGLGQSEGVYAAIPRSVSKLHYKVATAGHMVWGGPTTASVNVGAIGLAFQKTYLDGDTRWKAYITRPADAAIWTTNLR [TEP005]	< 25
FSAPGPSAPCSNCTRGPAPTATALKASSGPFTTAKFSVSGFLKGFGDSTVYYPTNTTGKMGAIAVIPGYLSYENSIDWWGPRLASHGFVVMTMNTETIYDQPDSRASQLSEALDYLIAQSNSSSSPIYNKVDSTRLGAIGWSMGGGGSLKLSTQRSINAIIPQAPWYLGSSAFSGIKTPALILACSADTVAPVAQHASPFYNQIPNSTPKAFLEIYGGSHFCANSGYPNQSMLGMYGIAWMKRFIDFDSRYSQFLCGPNHESDLAISDYRQNCPY [ESM044]	< 25
SAPVHHRAATHTSAAAHHHAPFAVRTTVVPRTAVTKFGGGVIYAPLDTGKPVLGAVVITPGFTDTNANEKEMAELVASQGFVAFAIDTLTTDDLPDLRAAQMLAAADYLTGQSAVRSEVSQDDVGLIGYSFGGGGTMQAAQSRPSIKAAIGLMPFDFPPATDPNAMYPSYPKMTTPTLVITGQKDDVADPKDFGKPAYDSIPAGTPKQYLELAGIGHEGGQHVPSATIRNAVTAFLKRYLDGNSAYAKFICPAPKVGGPISASLSSCPKG [ESM131]	< 25
STPVHHAAASYTSTAAHHHAPFAVRTTVVPKTAVTTFGGGVIYTPQDTGKPVLGAVVITPGFTDTNANEKEMAELVASQGFVAFAIDTLTTDDLPDLRATQMLAAADYLTGQSAVRSQVSKDDVGLIGYSFGGGGAMQAAQSRPSIKAAIGLMPFDFPPATDPDAMYPAYPHMTTPTLVITGQKDDVADPKDFGKPAYDSIPAGTPKQYLELTGLGHAAGQHVPVATIRTAVTAFLKRYLDGNSAYAKYICPAPKVGGPISASLSSCPKG [TEP069]	25.8
AADNPYERGPAPTVSSIEAARGSYAVSQTSVSSLSVSGFGGGTVYYPSSTADGTFGAVVISPGFTAYQSSIAWLGPRLASQGFVVFTIDTNTTLDQPDSRGRQLLAALDYLTKSSSVRGRVDASRLGVMGHSMGGGGSLEAAKSRTSLKAAIPLTGWNADKTWPELRTPTLVVGADGDTVAPVSSHSEPFYQSLPSTLDKAYLELNGATHFTPNSSNTTIAKYSISWLKRFIDNDTRYEQFLCPLPRPSLTIEEYRGNCPHGS [TEP044]	< 25

Source: the supplement of paper PMC12455559
